This is an account of results in US7294701B2, “Antibody fragment capable of modulating multidrug resistance and compositions and kits and methods using same” (Technion Research & Development Foundation Ltd., priority 2003, dated 2007).

Where “and” joins values, the source holds several entries; their conditions need not be identical. Equal values may be shown once. Entries after “also recorded” stand apart in the source; their conditions may differ. Read-outs that look alike come from different tables or passages of the source.

The subject of data set [1] is 2780^ADR cells. Kind of data set: viability of doxorubicin-exposed cells by [3H]-leucine incorporation. The format is cell-based, human. The note with it: A2 scFv 0.2 mg/ml before 5-10 μM doxorubicin. As to the method:
Cells were pre-incubated with A2 scFv at a concentration of 0.2 mg/ml, then exposed to 5-10 μM of doxirubicin and then analyzed for [^3H]Leucine content.

In data set [2] the target is T1, Pgp-derived peptide (SEQ ID NO:1) (Homo sapiens, UniProt P08183).
T1 construct: made in house; host or cells: chemical synthesis
The experiment in a line: competition binding radio-immunoassay with [125I]-labeled A2 scFv. The note with it: competition with [125I]-labeled A2 scFv, interpolated, FIG. 1d; read-out: concentration of cold competitor for 50% binding inhibition (affinity constant). As to the method: In a competition binding radio-immunoassay the purified A2 scFv (100 μg) was first labeled with [^125I] using the Bolton-Hunter reagent. The [^125I]-labeled A2 scFv antibody was added as a tracer (3-5×10^5 cpm/well) to a flexible microtiter plate, which had been pre-coated with BSA-biotin and the target peptide (SEQ ID NO:1), as described above. A non-labeled (i.e., cold) A2 scFv was then added, as a competitor, to the pre-coated plates at increasing concentrations. Plates were incubated for 1 hr at room temperature, then washed and analyzed by gamma counter.

Data set [3] deals with drug-sensitive cells KB3-1. Kind of data set: immuno-histochemical staining. The format is binding, human. The note with it: drug-sensitive KB3-1, A2 scFv 0.2 mg/ml, FIG. 2h. As to the method: (§1) Drug sensitive cells and MDR cells were grown to 50% confluence on glass slides, pre-coated with 4% gelatin in PBS, fixed with 2% formaldehyde in PBS, blocked with 1% BSA in PBS at room temperature, then followed by 90 min incubation with A2 scFv (0.2 mg/ml) in PBS containing 1% BSA (room temperature). The slides were then covered with HRP-labeled anti-Myc-antibody (1:500, in PBS containing 1% BSA) for 1 hr, washes with water, then covered with peroxidase substrate, (AEC) for 2-3 min. Slides were then washed with water and counter staining was performed with hematoxylin.

The test system of data set [4] is drug-sensitive cells 2780. Kind of data set: immuno-histochemical staining. The class given is binding, human. The note with it: 2780, A2 scFv 0.2 mg/ml, FIG. 2f. As to the method: as §1
Data set [5] has as its system KB3-1 cells. The experiment in a line: calcein-AM chromophore efflux assay, drug-sensitive cells. The class given is cell-based, human. The note with it: KB3-1, fluorometer, FIG. 4d.
Data set [6] addresses streptavidin (Streptomyces avidinii, UniProt P22629). Kind of data set: ELISA binding specificity, streptavidin. As to conditions: FIG. 1b. As to the method: (§2) The binding specificity of the purified A2 scFv antibody was determined via ELISA. A biotinylated target peptide having the amino acid sequence of SEQ ID NO:1, or a non-target MRP1 control peptide (provided at 10 μg in 100 μl) were each immobilized onto a flexible microtiter plate using BSA-biotin-streptavidin. A purified A2 scFv was then added, at different concentrations, to the peptide-coated plate and was detected with an anti Myc tag-HRP conjugate antibody.
A general note: ELISA stands for enzyme-linked immunosorbent assay.

Data set [7] concerns drug-sensitive ovarian carcinoma cells 2780. The experiment in a line: immunofluorescence flow-cytometer analysis of cell binding. More on the design: species or system human. The note with it: 2780, A2 scFv 50 μg/ml, FIG. 2a. As to the method: (§3) In another series of experiments, the reactivity and specificity of A2 scFv to Pgp, expressed on the surface of MDR cells, was evaluated. […] The MDR cell lines and the drug-sensitive cell lines used in these experiments are described in Table 2 below.
(§4) Cells growing on six well tissue culture plates were washed twice followed by incubation with soluble purified A2 scFv (50 μg/ml) for 90 minutes on ice. Detection was with anti-Myc (30 μg/ml) and FITC-labeled anti-mouse IgG (1:1000, Jackson). Detection of fluorescent cells was performed on a FACScalibur (Becton Dickinson).

In data set [8] the test system is drug-sensitive carcinoma cells KB3-1. The description is as above. More on the design: species or system human. As to conditions: KB3-1, A2 scFv 50 μg/ml, FIG. 2c. As to the method:
as §3, §4

Data set [9] concerns the target T2, Pgp on MDR epidermoid carcinoma cells KBV-1 (Homo sapiens, UniProt P08183).
T2 construct: MDR and Pgp-overexpressing human carcinoma cells KBV-1; endogenous in cells; host or cells: KBV-1 (KB-V1; drug-selected human epidermoid carcinoma, derived from KB3-1)
The description is as above. The note with it: KBV-1, A2 scFv 50 μg/ml, FIG. 2d. As to the method:
as §3, §4

Data set [10] addresses T3, Pgp on MDR ovarian carcinoma cells 2780^ADR (Homo sapiens, UniProt P08183).
T3 construct: MDR and Pgp-overexpressing ovarian carcinoma cells 2780^ADR; endogenous in cells; host or cells: 2780^ADR (drug-selected human ovarian carcinoma)
Described as above. As to conditions: A2 scFv 50 μg/ml, FIG. 2b. As to the method:
as §3, §4

Data set [11] deals with non-target MRP1 control peptide. The experiment in a line: ELISA binding specificity, non-target control peptide. The note with it: FIG. 1b. As to the method: as §2
Data set [12] deals with A8 cells. Kind of data set: calcein-AM chromophore efflux assay, drug-sensitive cells. The format is cell-based, rodent (CHO). The note with it: A8, fluorometer, FIG. 4e.
The target of data set [13] is T4, biotinylated Pgp-derived peptide (SEQ ID NO:1) (Homo sapiens, UniProt P08183).
T4 construct: made in house; host or cells: chemical synthesis
The experiment in a line: saturation ELISA. The note with it: interpolated, FIG. 1c. From the text: The binding properties of A2 scFv were further characterized using a saturation ELISA. In this experiment, a biotinylated Pgp-derived peptide (SEQ ID NO:1) was bound to plates precoated with BSA-biotin and exposed to increasing amounts of A2 scFv.

Data set [14] addresses T3, Pgp on MDR ovarian carcinoma cells 2780^ADR. The experiment in a line: immuno-histochemical staining. The class given is binding. As to conditions: A2 scFv 0.2 mg/ml, FIG. 2e. As to the method: as §1
Data set [15] addresses T5, Pgp on MDR carcinoma cells KBV-1 (Homo sapiens, UniProt P08183).
T5 construct: MDR and Pgp-overexpressing human carcinoma cells KBV-1; endogenous in cells; host or cells: KBV-1 (KB-V1; drug-selected human epidermoid carcinoma, derived from KB3-1)
The experiment in a line: immuno-histochemical staining. The format is binding. The note with it: MDR KBV-1, A2 scFv 0.2 mg/ml, FIG. 2g. As to the method:
as §1

Data set [16] deals with T6, Pgp drug-efflux activity in 2780^ADR cells (Homo sapiens, UniProt P08183).
T6 sequence (P08183 whole entry): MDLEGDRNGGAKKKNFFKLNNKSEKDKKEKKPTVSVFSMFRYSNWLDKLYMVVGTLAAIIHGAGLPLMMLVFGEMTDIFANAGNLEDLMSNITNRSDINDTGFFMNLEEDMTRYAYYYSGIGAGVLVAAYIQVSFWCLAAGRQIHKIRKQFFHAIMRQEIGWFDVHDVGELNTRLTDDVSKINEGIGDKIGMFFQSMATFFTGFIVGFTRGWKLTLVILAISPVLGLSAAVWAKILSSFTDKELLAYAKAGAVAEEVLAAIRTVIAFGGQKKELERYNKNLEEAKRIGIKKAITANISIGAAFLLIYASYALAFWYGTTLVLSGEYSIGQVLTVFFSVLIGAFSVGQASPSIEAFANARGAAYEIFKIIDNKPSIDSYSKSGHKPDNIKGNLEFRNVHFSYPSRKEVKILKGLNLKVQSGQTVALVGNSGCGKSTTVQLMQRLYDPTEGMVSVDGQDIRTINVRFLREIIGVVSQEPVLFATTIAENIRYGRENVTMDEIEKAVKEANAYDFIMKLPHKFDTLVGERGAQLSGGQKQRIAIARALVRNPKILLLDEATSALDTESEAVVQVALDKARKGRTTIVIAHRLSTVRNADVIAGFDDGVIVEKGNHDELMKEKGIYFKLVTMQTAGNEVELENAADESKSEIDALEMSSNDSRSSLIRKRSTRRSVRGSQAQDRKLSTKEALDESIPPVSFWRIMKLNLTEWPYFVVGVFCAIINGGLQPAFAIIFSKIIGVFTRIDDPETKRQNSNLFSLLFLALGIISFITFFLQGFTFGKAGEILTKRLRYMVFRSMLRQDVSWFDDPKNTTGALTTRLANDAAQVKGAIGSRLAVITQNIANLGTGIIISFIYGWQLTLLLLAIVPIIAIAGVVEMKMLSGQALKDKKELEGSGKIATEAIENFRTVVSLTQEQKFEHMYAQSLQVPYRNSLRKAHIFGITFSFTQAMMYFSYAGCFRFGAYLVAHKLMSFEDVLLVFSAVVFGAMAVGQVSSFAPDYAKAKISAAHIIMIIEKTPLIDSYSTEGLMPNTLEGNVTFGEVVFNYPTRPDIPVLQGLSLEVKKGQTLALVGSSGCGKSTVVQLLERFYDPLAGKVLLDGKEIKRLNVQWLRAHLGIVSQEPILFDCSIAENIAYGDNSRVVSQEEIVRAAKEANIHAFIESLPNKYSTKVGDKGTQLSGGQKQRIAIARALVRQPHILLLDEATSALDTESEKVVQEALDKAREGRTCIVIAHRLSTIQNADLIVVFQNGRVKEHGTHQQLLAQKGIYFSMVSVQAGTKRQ
For data set [17], the target named is T6, Pgp drug-efflux activity in 2780^ADR cells. The experiment in a line: calcein-AM chromophore efflux assay. As to conditions: antibody given before calcein, FIGS. 3c, 3e.
For data set [18], the system named is 2780 cells. Kind of data set: calcein-AM chromophore efflux assay, drug-sensitive cells. The format is cell-based, human. As to conditions: 2780, fluorometer, FIG. 4c.
The target of data set [19] is T7, Pgp drug-efflux activity in EMT^R1 cells (Cricetulus griseus, UniProt P21448).
T7 construct: a rodent (CHO) MDR cell line EMT^R1; endogenous in cells; host or cells: EMT^R1 (CHO, parental line A8)
T7 sequence (P21448 whole entry): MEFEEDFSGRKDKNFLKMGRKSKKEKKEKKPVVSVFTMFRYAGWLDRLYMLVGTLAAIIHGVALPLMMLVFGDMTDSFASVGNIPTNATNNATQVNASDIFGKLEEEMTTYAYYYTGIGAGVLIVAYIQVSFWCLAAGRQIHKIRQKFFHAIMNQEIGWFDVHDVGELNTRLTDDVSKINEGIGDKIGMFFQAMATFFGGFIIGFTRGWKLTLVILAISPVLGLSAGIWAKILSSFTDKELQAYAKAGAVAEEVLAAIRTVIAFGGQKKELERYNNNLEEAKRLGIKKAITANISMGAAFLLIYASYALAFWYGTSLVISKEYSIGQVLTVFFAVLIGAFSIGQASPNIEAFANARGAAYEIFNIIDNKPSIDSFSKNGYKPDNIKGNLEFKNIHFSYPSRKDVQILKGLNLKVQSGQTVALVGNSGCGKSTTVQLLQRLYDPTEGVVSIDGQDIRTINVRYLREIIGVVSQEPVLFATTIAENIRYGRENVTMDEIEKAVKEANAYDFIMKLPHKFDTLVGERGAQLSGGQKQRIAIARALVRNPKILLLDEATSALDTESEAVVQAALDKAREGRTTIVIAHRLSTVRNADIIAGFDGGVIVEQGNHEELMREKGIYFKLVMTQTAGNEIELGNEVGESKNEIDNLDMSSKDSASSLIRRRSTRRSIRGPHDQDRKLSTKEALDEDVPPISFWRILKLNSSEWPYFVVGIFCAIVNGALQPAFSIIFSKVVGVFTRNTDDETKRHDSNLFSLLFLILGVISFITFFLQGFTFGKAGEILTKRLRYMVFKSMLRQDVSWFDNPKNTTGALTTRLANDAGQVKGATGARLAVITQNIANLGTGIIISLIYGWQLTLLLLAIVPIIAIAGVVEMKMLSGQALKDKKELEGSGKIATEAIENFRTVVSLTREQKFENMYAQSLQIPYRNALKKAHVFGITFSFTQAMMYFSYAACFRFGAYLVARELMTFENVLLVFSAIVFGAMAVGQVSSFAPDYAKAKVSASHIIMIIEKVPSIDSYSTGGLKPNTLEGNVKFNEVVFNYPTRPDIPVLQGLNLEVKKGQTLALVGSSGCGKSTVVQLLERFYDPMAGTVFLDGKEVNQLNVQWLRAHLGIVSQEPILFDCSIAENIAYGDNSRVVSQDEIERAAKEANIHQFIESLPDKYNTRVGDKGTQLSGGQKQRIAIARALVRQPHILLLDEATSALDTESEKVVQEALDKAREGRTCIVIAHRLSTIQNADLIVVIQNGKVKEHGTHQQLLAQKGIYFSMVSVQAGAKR
Kind of data set: calcein-AM chromophore efflux assay. The class given is cell-based, rodent (CHO). The note with it: EMT^R1, fluorometer, FIG. 4a.

What is called IC50 is the concentration that gives 50% inhibition. High values mean a need for much substance, low ones inhibition by little substance.

T3 sequence (P08183 whole entry): as the sequence (P08183 whole entry) above
T5 sequence (P08183 whole entry): as above

B1: A2 scFv: novel anti-Pgp single-chain Fv, about 30 kDa, encoded by SEQ ID NO:2, directed to first extracellular loop peptide SEQ ID NO:1 (protein)
chain: QVQLQQSGPDLVKPGASVKISCKASGYSFTGYYMHWVKQSHGKSLEWIGRANPNNGGTSYNQKFKGKAILTVDKSSSTAYMELRSLTSEDSAVYYCARWDGAYWGQGTLVTVSSGGGGSGGGGSGGGGSDVVMTQTPLSLPVSLGDQASISCRSSQSIVHSNGNTYLEWYLQKPGQSPKLLIYKVSNRFSGVPDRFSGSGSGTDFTLKISRVEAEDLGVYYCFQGSHVPFTFGSGTKLELK
modifications: A2 single chain Fv coding sequence
As for B1, the “viability of cells exposed to doxorubicin” value in data set [1] is reported as “effectively reduced the viability of cells; also recorded: substantial loss of viability of cells”. The Kd in [2] was 130 nM and ~130 nM; in data set [13] (listed as A2, read-out: concentration required for 50% of maximal binding (affinity constant)), around 150 nM; in data set [13] (read-out: concentration required for 50% of maximal binding (affinity constant)), 150 nM and ~150 nM. For the same molecule, the “immuno-histochemical staining of cells” value in data set [3] is recorded as “did not stain; also recorded: no antibody-cell reaction”; in data set [4], “did not stain; also recorded: no antibody-cell reaction”; in [14], “intense in situ staining; also recorded: positive antibody-cell reaction”; in [15], “intense in situ staining; also recorded: positive antibody-cell reaction”. Moreover, the “effect on calcein uptake in drug-sensitive cells” value in data set [5], in [12] and in data set [18] was “did not affect the level of calcein accumulation; also recorded: no effect” in each case. For the same molecule, the binding to streptavidin result in data set [6] is “did not react”. Moreover, the “reactivity with cells (flow cytometer)” value was “no reactivity; also recorded: no effect on fluorescent intensity” in [7], “no reactivity; also recorded: no effect on fluorescent intensity” in data set [8], “strong reactivity; also recorded: substantial increase in fluorescent intensity” in data set [9] and “strong reactivity” in [10]. Besides, the “increase in fluorescent intensity” value in [10] is 10 fold. In addition, the “binding to biotinylated non-target peptide” value in data set [11] is recorded as “did not react”. In addition, the midpoint of inhibition in data set [16], the IC50, lay at 2600 nM. Besides, in data set [16], the “concentration of maximal inhibitory activity” value is 100 µg/mL. Moreover, the “effect on calcein uptake / drug efflux activity” value in data set [17] was “substantial increase in fluorescence intensity; also recorded: substantially inhibited drug efflux activity; also recorded: positive dose-response effect”. Besides, the “effect on calcein uptake” value in data set [19] was “substantial increases in calcein accumulation; also recorded: substantially higher levels of fluorescence”.
